Experiments:
AtWRKY12 [1] = target: T1, AtWRKY12 (Arabidopsis thaliana, UniProt Q93WY4 SEQ:1-218); assay: EMSA; 100 ng protein, 20 min, Pierce EMSA kit buffer; details: tags: MBP fusion, expressed in E. coli, amylose resin purified; label: 5' biotin on one strand
Source text: (§1) To express the recombinant AtWRKY12 protein, the coding sequence was fused in frame with maltose binding protein (MBP), expressed in E. coli, and the recombinant protein was purified using amylose resin. The pure protein was used for EMSA with the NST2 or C3H promoter fragments. Double-strand probe and competitor fragments were made from annealing of separately synthesized strands, with/without one 5′ biotin labeled strand. The sequence used for NST2 was:
(§2) For C3H the sequence was: 5′-[…]-3′ (SEQ ID NO:42); and for C3HL the sequence was 5′-[…]-3′ (SEQ ID NO:43). The conserved WRKY binding motifs are underlined. The biotin-labeled and competitor DNA fragments were incubated for 20 min with 100 ng of AtWRKY12-MBP in binding buffer according to the EMSA kit protocol (Pierce, Rockford, Ill.), and reaction mixtures were loaded for polyacrylamide gel electrophoresis. The DNA was electroblotted onto nitrocellulose membrane and detected by the chemiluminescent method.

AtWRKY12 [2] = target: T1, AtWRKY12; assay: EMSA; 100 ng protein, 20 min; no binding detected; details: tags: MBP fusion, expressed in E. coli, amylose resin purified; label: 5' biotin on one strand
Source text: as §1, §2

T1 sequence (Q93WY4 whole entry, the tested form may be a part): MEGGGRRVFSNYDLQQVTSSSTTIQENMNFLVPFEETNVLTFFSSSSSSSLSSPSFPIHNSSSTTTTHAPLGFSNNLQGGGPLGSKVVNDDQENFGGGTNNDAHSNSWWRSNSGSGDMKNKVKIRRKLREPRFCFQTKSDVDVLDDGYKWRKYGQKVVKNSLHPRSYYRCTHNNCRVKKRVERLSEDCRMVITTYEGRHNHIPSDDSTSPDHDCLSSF

B1: NST2 promoter fragment (dsDNA)
DNA 1: AAAGAGACCATTAGTATATTTGACCCAAAAAAAAATAAAAAAAAAAGAG
DNA 2: CTCTTTTTTTTTTATTTTTTTTTGGGTCAAATATACTAATGGTCTCTTT
Does B1 bind (AtWRKY12 [1])?
Result: binds

B2: C3H14L promoter fragment (dsDNA)
DNA 1: TGGCTTAAATCATATTGACAAGACCCATTAAAAAGAGG
DNA 2: CCTCTTTTTAATGGGTCTTGTCAATATGATTTAAGCCA
Does B2 bind (AtWRKY12 [2])?
Result: no binding

B3: C3H14 promoter fragment (dsDNA)
DNA 1: TGGAAGATGCATGTTATTGACTAAATATGATCTACCA
DNA 2: TGGTAGATCATATTTAGTCAATAACATGCATCTTCCA
Does B3 bind (AtWRKY12 [2])?
Result: no binding

Source: US20120117691, “TRANSCRIPTION FACTORS FOR MODIFICATION OF LIGNIN CONTENT IN PLANTS” (The Samuel Roberts Noble Foundation, Inc., published 2012)
